What was measured:
[1] = target: streptavidin (fluorescently labeled) (UniProt P22629 25-183); experiment: fluorescence microscopy recruitment to RNA condensate; 25% aptamer strand; Multi-stranded: 40 mM HEPES, 100 mM KCl, 500 mM NaCl, 5 uM strands (1.25 uM aptamer strand), 70 C melt, 12 h hold (50 C), imaged after 20 C; co-transcriptional: T7 transcription buffer with 10 mM NaCl, 30 mM MgCl2, 2 mM spermidine, 37 C; pH not given; settings: protein: commercial; tags: fluorescent label; chain copies: 4; four-arm nanostar of 4 strands, 5' palindromic sticky end GCGC on S2-S4; aptamer 5' of the S1 sticky end
Sequence of streptavidin (fluorescently labeled) (P22629 25-183): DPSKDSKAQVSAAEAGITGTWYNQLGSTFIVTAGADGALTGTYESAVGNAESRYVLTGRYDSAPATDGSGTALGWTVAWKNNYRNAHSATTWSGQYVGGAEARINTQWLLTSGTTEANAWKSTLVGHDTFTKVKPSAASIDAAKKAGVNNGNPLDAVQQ

P22 N peptide = target: T1, P22 N peptide (bacteriophage P22, UniProt P04891 14-30); experiment: as above; settings: tags: 6-FAM (stated for single-stranded nanostar experiments); four-arm nanostar of 4 strands, 5' palindromic sticky end GAGCUC on S2-S4; boxB hairpin 5' of the S1 sticky end
T1 chain: NAKTRRHERRRKLAIER

B1: 4m3 nanostar with streptavidin aptamer (structured_RNA)
RNA 1: GAUGCGGCCGCCGACCAGAAUCAUGCAAGUGCGUAAGAUAGUCGCGGGUCGGCGGCCGCAUCGCGCAUCCACGGCGUGUCGCAAGACGCCGACGCGUCG
RNA 2: GCGCAGUCGGGAUAUACCGGAAGCGACACGCCGUGGA
RNA 3: GCGCAAGUCCACAGUGGCGCAACCGGUAUAUCCCGAC
RNA 4: GCGCACGACGCGUCGGCGUCAAGCGCCACUGUGGACU
Question: Does B1 bind [1]?
Answer: Result: binds

B2: 4m5 nanostar with P22 boxB (structured_RNA)
RNA 1: GGUGCGCUGACAAAGCGCGCCGAGCUCAGAGUCUCUGGUCGCCAAGCUUAUCGGACACUG
RNA 2: GAGCUCAAGUAGGCACAUCAGCAAGGCGACCAGAGACUC
RNA 3: GAGCUCAUGCGUGGAGACAACGAAGCUGAUGUGCCUACU
RNA 4: GAGCUCACAGUGUCCGAUAAGCAACGUUGUCUCCACGCA
Question: Does B2 bind (P22 N peptide)?
Answer: Result: binds
